Measurements published in IntAct's records for PubMed 10026153.

B1: Tyrosine-protein kinase CSK (Homo sapiens), P41240 (parent)
chain: MSAIQAAWPSGTECIAKYNFHGTAEQDLPFCKGDVLTIVAVTKDPNWYKAKNKVGREGIIPANYVQKREGVKAGTKLSLMPWFHGKITREQAERLLYPPETGLFLVRESTNYPGDYTLCVSCDGKVEHYRIMYHASKLSIDEEVYFENLMQLVEHYTSDADGLCTRLIKPKVMEGTVAAQDEFYRSGWALNMKELKLLQTIGKGEFGDVMLGDYRGNKVAVKCIKNDATAQAFLAEASVMTQLRHSNLVQLLGVIVEEKGGLYIVTEYMAKGSLVDYLRSRGRSVLGGDCLLKFSLDVCEAMEYLEGNNFVHRDLAARNVLVSEDNVAKVSDFGLTKEASSTQDTGKLPVKWTAPEALREKKFSTKSDVWSFGILLWEIYSFGRVPYPRIPLKDVVPRVEKGYKMDAPDGCPPAVYEVMKNCWHLDAAMRPSFLQLREQLEHIKTHELHL

Variants of: B1
Settings: with igf1r_human IGF1R

effect of a mutation on the interaction | Variant
disrupting interaction strength | S109C
